Consider 1 molecule from US5989804, “E6 binding proteins” (New England Medical Center Hospitals, Inc., dated 1999).

The target of the test is in vitro-translated 35S-labeled HPV16 E6 (human papillomavirus type 16, UniProt P03126, 35S-labeled cysteine or methionine). Nature of the test: GST pull-down of 35S-labeled in vitro-translated HPV-16 E6.

B1: GSTSD7EF5 (other)
chain: ILVEKDRFVNDYDKDNDGRLDPQELLPWVVPNNQGI
With B1, the binding result is listed as “no binding”.
